This note sets out measurements from the RNAGym collection of RNA variant scans (doi:10.1021/acssynbio.7b00057).

B1: Pistol ribozyme (parent)
chain: GGGUCGUUGUUCCAUAAUCGCGUGGAUAUGGCACGCAAGUUUCUACCGGGCACCGUAAAUGUCCGACUGGAGCCGUUCGGGCGGCUAUAAACAGACCUCAGGCCCGAAGCGUGGCGGCACCUGCCGCCGGUGGUAAAAAAGAUCGGAAGAGCACACGUCU

This data set covers variants of B1. Description: aptazyme ON/OFF ratio, guanine; higher = stronger switching; co-transcriptional cleavage with and without guanine.
As to GGGUCGUAGUCCAAUAAUCGCGUGGAUAUGGCACGCAAGUUUCUACCGGGCACCGUAAAUGUCCGACUGGAGCCGUUCGGGCGGCUAUAAACAGACCUCAGGCCCGAAGCGUGGCGGCACCUGCCGCCGGUGGUAAAAAAGAUCGGAAGAGCACACGUCU, the “aptazyme ON/OFF ratio” value amounted to 1.13. With GGGUCGACAGUAGAUAAUCGCGUGGAUAUGGCACGCAAGUUUCUACCGGGCACCGUAAAUGUCCGACUGGAGCCGUUCGGGCGGCUAUAAACAGACCUCAGGCCCGAAGCGUGGCGGCACCUGCCGCCGGUGGUAAAAAAGAUCGGAAGAGCACACGUCU the figure was 1.2; with GGGUCGUGUUAACAUAAUCGCGUGGAUAUGGCACGCAAGUUUCUACCGGGCACCGUAAAUGUCCGACUGGAGCCGUUCGGGCGGCUAUAAACAGACCUCAGGCCCGAAGCGUGGCGGCACCUGCCGCCGGUGGUAAAAAAGAUCGGAAGAGCACACGUCU, 1.42. On to GGGUCGCAAAGACAUAAUCGCGUGGAUAUGGCACGCAAGUUUCUACCGGGCACCGUAAAUGUCCGACUGGAGCCGUUCGGGCGGCUAUAAACAGACCUCAGGCCCGAAGCGUGGCGGCACCUGCCGCCGGUGGUAAAAAAGAUCGGAAGAGCACACGUCU, for which the “aptazyme ON/OFF ratio” value was 1.05. Take GGGUCGAUCAACUAUAAUCGCGUGGAUAUGGCACGCAAGUUUCUACCGGGCACCGUAAAUGUCCGACUGGAGCCGUUCGGGCGGCUAUAAACAGACCUCAGGCCCGAAGCGUGGCGGCACCUGCCGCCGGUGGUAAAAAAGAUCGGAAGAGCACACGUCU: the “aptazyme ON/OFF ratio” value is 1.1. With GGGUCGAACCCGUAUAAUCGCGUGGAUAUGGCACGCAAGUUUCUACCGGGCACCGUAAAUGUCCGACUGGAGCCGUUCGGGCGGCUAUAAACAGACCUCAGGCCCGAAGCGUGGCGGCACCUGCCGCCGGUGGUAAAAAAGAUCGGAAGAGCACACGUCU the figure was 1.03. GGGUCGAAGUUAGAUAAUCGCGUGGAUAUGGCACGCAAGUUUCUACCGGGCACCGUAAAUGUCCGACUGGAGCCGUUCGGGCGGCUAUAAACAGACCUCAGGCCCGAAGCGUGGCGGCACCUGCCGCCGGUGGUAAAAAAGAUCGGAAGAGCACACGUCU: the “aptazyme ON/OFF ratio” value was found to be 1.12.

In the case of GGGUCGUAUCCUAAUAAUCGCGUGGAUAUGGCACGCAAGUUUCUACCGGGCACCGUAAAUGUCCGACUGGAGCCGUUCGGGCGGCUAUAAACAGACCUCAGGCCCGAAGCGUGGCGGCACCUGCCGCCGGUGGUAAAAAAGAUCGGAAGAGCACACGUCU, the “aptazyme ON/OFF ratio” value is 1.04. With GGGUCGAUUAGUCAUAAUCGCGUGGAUAUGGCACGCAAGUUUCUACCGGGCACCGUAAAUGUCCGACUGGAGCCGUUCGGGCGGCUAUAAACAGACCUCAGGCCCGAAGCGUGGCGGCACCUGCCGCCGGUGGUAAAAAAGAUCGGAAGAGCACACGUCU the figure was 1.39; with GGGUCGGGAUGAUAUAAUCGCGUGGAUAUGGCACGCAAGUUUCUACCGGGCACCGUAAAUGUCCGACUGGAGCCGUUCGGGCGGCUAUAAACAGACCUCAGGCCCGAAGCGUGGCGGCACCUGCCGCCGGUGGUAAAAAAGAUCGGAAGAGCACACGUCU, 1.18; with GGGUCGUAUUAUCAUAAUCGCGUGGAUAUGGCACGCAAGUUUCUACCGGGCACCGUAAAUGUCCGACUGGAGCCGUUCGGGCGGCUAUAAACAGACCUCAGGCCCGAAGCGUGGCGGCACCUGCCGCCGGUGGUAAAAAAGAUCGGAAGAGCACACGUCU, 1.47. As for GGGUCGUAGUUAGAUAAUCGCGUGGAUAUGGCACGCAAGUUUCUACCGGGCACCGUAAAUGUCCGACUGGAGCCGUUCGGGCGGCUAUAAACAGACCUCAGGCCCGAAGCGUGGCGGCACCUGCCGCCGGUGGUAAAAAAGAUCGGAAGAGCACACGUCU, the figure is 1.13. On to GGGUCGUAGUCGGAUAAUCGCGUGGAUAUGGCACGCAAGUUUCUACCGGGCACCGUAAAUGUCCGACUGGAGCCGUUCGGGCGGCUAUAAACAGACCUCAGGCCCGAAGCGUGGCGGCACCUGCCGCCGGUGGUAAAAAAGAUCGGAAGAGCACACGUCU, for which the “aptazyme ON/OFF ratio” value was 1.32. GGGUCGCGCCUGAAUAAUCGCGUGGAUAUGGCACGCAAGUUUCUACCGGGCACCGUAAAUGUCCGACUGGAGCCGUUCGGGCGGCUAUAAACAGACCUCAGGCCCGAAGCGUGGCGGCACCUGCCGCCGGUGGUAAAAAAGAUCGGAAGAGCACACGUCU: the “aptazyme ON/OFF ratio” value is 1.43. As for GGGUCGGAGGGAUAUAAUCGCGUGGAUAUGGCACGCAAGUUUCUACCGGGCACCGUAAAUGUCCGACUGGAGCCGUUCGGGCGGCUAUAAACAGACCUCAGGCCCGAAGCGUGGCGGCACCUGCCGCCGGUGGUAAAAAAGAUCGGAAGAGCACACGUCU, the figure is 1.73; as for GGGUCGAUGUUCUAUAAUCGCGUGGAUAUGGCACGCAAGUUUCUACCGGGCACCGUAAAUGUCCGACUGGAGCCGUUCGGGCGGCUAUAAACAGACCUCAGGCCCGAAGCGUGGCGGCACCUGCCGCCGGUGGUAAAAAAGAUCGGAAGAGCACACGUCU, 1.58. Regarding GGGUCGCCGCCCGAUAAUCGCGUGGAUAUGGCACGCAAGUUUCUACCGGGCACCGUAAAUGUCCGACUGGAGCCGUUCGGGCGGCUAUAAACAGACCUCAGGCCCGAAGCGUGGCGGCACCUGCCGCCGGUGGUAAAAAAGAUCGGAAGAGCACACGUCU, the “aptazyme ON/OFF ratio” value came out at 1.28. With GGGUCGAAAUCAUAUAAUCGCGUGGAUAUGGCACGCAAGUUUCUACCGGGCACCGUAAAUGUCCGACUGGAGCCGUUCGGGCGGCUAUAAACAGACCUCAGGCCCGAAGCGUGGCGGCACCUGCCGCCGGUGGUAAAAAAGAUCGGAAGAGCACACGUCU the figure was 1.22; with GGGUCGAAACAAAAUAAUCGCGUGGAUAUGGCACGCAAGUUUCUACCGGGCACCGUAAAUGUCCGACUGGAGCCGUUCGGGCGGCUAUAAACAGACCUCAGGCCCGAAGCGUGGCGGCACCUGCCGCCGGUGGUAAAAAAGAUCGGAAGAGCACACGUCU, 1.11. As for GGGUCGUGCAUCUAUAAUCGCGUGGAUAUGGCACGCAAGUUUCUACCGGGCACCGUAAAUGUCCGACUGGAGCCGUUCGGGCGGCUAUAAACAGACCUCAGGCCCGAAGCGUGGCGGCACCUGCCGCCGGUGGUAAAAAAGAUCGGAAGAGCACACGUCU, the figure is 1.09; as for GGGUCGCCUAGGCAUAAUCGCGUGGAUAUGGCACGCAAGUUUCUACCGGGCACCGUAAAUGUCCGACUGGAGCCGUUCGGGCGGCUAUAAACAGACCUCAGGCCCGAAGCGUGGCGGCACCUGCCGCCGGUGGUAAAAAAGAUCGGAAGAGCACACGUCU, 1.15; as for GGGUCGGAGCCUUAUAAUCGCGUGGAUAUGGCACGCAAGUUUCUACCGGGCACCGUAAAUGUCCGACUGGAGCCGUUCGGGCGGCUAUAAACAGACCUCAGGCCCGAAGCGUGGCGGCACCUGCCGCCGGUGGUAAAAAAGAUCGGAAGAGCACACGUCU, 1.13. Turning to GGGUCGGUCAUAGAUAAUCGCGUGGAUAUGGCACGCAAGUUUCUACCGGGCACCGUAAAUGUCCGACUGGAGCCGUUCGGGCGGCUAUAAACAGACCUCAGGCCCGAAGCGUGGCGGCACCUGCCGCCGGUGGUAAAAAAGAUCGGAAGAGCACACGUCU, the “aptazyme ON/OFF ratio” value was found to be 1.09. With GGGUCGAUCAGCGAUAAUCGCGUGGAUAUGGCACGCAAGUUUCUACCGGGCACCGUAAAUGUCCGACUGGAGCCGUUCGGGCGGCUAUAAACAGACCUCAGGCCCGAAGCGUGGCGGCACCUGCCGCCGGUGGUAAAAAAGAUCGGAAGAGCACACGUCU the figure was 1.06. With GGGUCGGCGGAAGAUAAUCGCGUGGAUAUGGCACGCAAGUUUCUACCGGGCACCGUAAAUGUCCGACUGGAGCCGUUCGGGCGGCUAUAAACAGACCUCAGGCCCGAAGCGUGGCGGCACCUGCCGCCGGUGGUAAAAAAGAUCGGAAGAGCACACGUCU the figure was 1.1; with GGGUCGCCACUACAUAAUCGCGUGGAUAUGGCACGCAAGUUUCUACCGGGCACCGUAAAUGUCCGACUGGAGCCGUUCGGGCGGCUAUAAACAGACCUCAGGCCCGAAGCGUGGCGGCACCUGCCGCCGGUGGUAAAAAAGAUCGGAAGAGCACACGUCU, 1.12; with GGGUCGCUUCUAUAUAAUCGCGUGGAUAUGGCACGCAAGUUUCUACCGGGCACCGUAAAUGUCCGACUGGAGCCGUUCGGGCGGCUAUAAACAGACCUCAGGCCCGAAGCGUGGCGGCACCUGCCGCCGGUGGUAAAAAAGAUCGGAAGAGCACACGUCU, 1.09. With GGGUCGUGGCAUUAUAAUCGCGUGGAUAUGGCACGCAAGUUUCUACCGGGCACCGUAAAUGUCCGACUGGAGCCGUUCGGGCGGCUAUAAACAGACCUCAGGCCCGAAGCGUGGCGGCACCUGCCGCCGGUGGUAAAAAAGAUCGGAAGAGCACACGUCU the figure was 1.22; with GGGUCGACCUUCUAUAAUCGCGUGGAUAUGGCACGCAAGUUUCUACCGGGCACCGUAAAUGUCCGACUGGAGCCGUUCGGGCGGCUAUAAACAGACCUCAGGCCCGAAGCGUGGCGGCACCUGCCGCCGGUGGUAAAAAAGAUCGGAAGAGCACACGUCU, 1.07. For GGGUCGCGGCUAAAUAAUCGCGUGGAUAUGGCACGCAAGUUUCUACCGGGCACCGUAAAUGUCCGACUGGAGCCGUUCGGGCGGCUAUAAACAGACCUCAGGCCCGAAGCGUGGCGGCACCUGCCGCCGGUGGUAAAAAAGAUCGGAAGAGCACACGUCU, the “aptazyme ON/OFF ratio” value was determined as 1.28. As for GGGUCGUCCGCCCAUAAUCGCGUGGAUAUGGCACGCAAGUUUCUACCGGGCACCGUAAAUGUCCGACUGGAGCCGUUCGGGCGGCUAUAAACAGACCUCAGGCCCGAAGCGUGGCGGCACCUGCCGCCGGUGGUAAAAAAGAUCGGAAGAGCACACGUCU, the figure is 1.12; as for GGGUCGCUGGUCGAUAAUCGCGUGGAUAUGGCACGCAAGUUUCUACCGGGCACCGUAAAUGUCCGACUGGAGCCGUUCGGGCGGCUAUAAACAGACCUCAGGCCCGAAGCGUGGCGGCACCUGCCGCCGGUGGUAAAAAAGAUCGGAAGAGCACACGUCU, 1.16; as for GGGUCGUCAUGCAAUAAUCGCGUGGAUAUGGCACGCAAGUUUCUACCGGGCACCGUAAAUGUCCGACUGGAGCCGUUCGGGCGGCUAUAAACAGACCUCAGGCCCGAAGCGUGGCGGCACCUGCCGCCGGUGGUAAAAAAGAUCGGAAGAGCACACGUCU, 1.23.

For the variant GGGUCGUGCUUACAUAAUCGCGUGGAUAUGGCACGCAAGUUUCUACCGGGCACCGUAAAUGUCCGACUGGAGCCGUUCGGGCGGCUAUAAACAGACCUCAGGCCCGAAGCGUGGCGGCACCUGCCGCCGGUGGUAAAAAAGAUCGGAAGAGCACACGUCU, the “aptazyme ON/OFF ratio” value came to 1.07. With GGGUCGUUAUUUUAUAAUCGCGUGGAUAUGGCACGCAAGUUUCUACCGGGCACCGUAAAUGUCCGACUGGAGCCGUUCGGGCGGCUAUAAACAGACCUCAGGCCCGAAGCGUGGCGGCACCUGCCGCCGGUGGUAAAAAAGAUCGGAAGAGCACACGUCU the figure was 1.32; with GGGUCGUUUAACGAUAAUCGCGUGGAUAUGGCACGCAAGUUUCUACCGGGCACCGUAAAUGUCCGACUGGAGCCGUUCGGGCGGCUAUAAACAGACCUCAGGCCCGAAGCGUGGCGGCACCUGCCGCCGGUGGUAAAAAAGAUCGGAAGAGCACACGUCU, 1.17.
